Assay [1] deals with human recombinant wildtype neurofibromin isoform I (human) (UniProt P21359). The experiment in a line: cryo-EM structure.
For assay [2] the target is unchanged. The assay can be described thus: cryo-EM structure. The source holds these as a separate data set.

1 substance from doi:10.1101/2025.02.13.638105 can be followed below.

Like-named read-outs stand apart in the source and are kept apart here.

Take “human recombinant wildtype neurofibromin isoform I, P21359-2 1-2818”: in assay [1], the dimers per tetramer (counts of single particles) was 4. Also, the stoichiometry N in assay [1] came to 4; in assay [2], 2.

The stoichiometry N is a count of units in the complex or per binding partner.
